Data on 37 sequences can be found in the supplement of paper PMC10567573.

± gives the standard deviation.

This data set in a line: protein stability index of a GFP-peptide fusion (GPS, HEK-293T) (PSI 1-6); higher = more stable. The note with it: c terminus: a fixed tail appended.
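Note: 24-mer peptide tiles fused after GFP, lentivirally expressed, FACS-sorted into six equal bins by GFP/DsRed ratio, decoded by Illumina sequencing, PSI is the read-weighted mean bin number.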

Regarding CGSKACRRLFGPVDSEQLRRDCDA [CDKN1A], the protein stability index stood at 3.18 ± 0.2 (treatment: DMSO) and 3.23 ± 0.093 (treatment: MLN4924 1 uM, 8 h). As to ENEETGEFSIDNYPTDNTKVMIFK [MIA2], the protein stability index (treatment: MLN4924 1 uM, 8 h) amounted to 4.217 ± 0.033. Regarding FATRPGAIETAMEDLKGHVAETSG [TPRG1], the protein stability index amounted to 4.45 ± 0.31 (treatment: DMSO) and 4.81 ± 0.19 (treatment: MLN4924 1 uM, 8 h). In the same order, the values of MAGSDTAPFLSQADDPDDGPVPGT [SPNS1] are 5.57 ± 0.17 and 5.34 ± 0.23.

On to FSVVRRCVKLCTGHEYAAKIINTK [CAMK2B], for which the protein stability index stood at 2.1 ± 0.35 (treatment: DMSO) and 2.21 ± 0.19 (treatment: MLN4924 1 uM, 8 h).

With LAFVGGLPLAYQQTSAFARQPRDE [TMEM175], the protein stability index (treatment: DMSO) was determined as 3 ± 0.31 and the protein stability index (treatment: MLN4924 1 uM, 8 h) turned out to be 3.06 ± 0.15. In the same order, the values of STHLTVHRRIHTGEKPYECQDCGR [ZNF8] are 3.9 ± 0.32 and 4.1 ± 0.52.

As for DYVDRGYYSVETVTLLVALKVRYR [PPP2CA], the protein stability index runs as follows: (treatment: DMSO) 2.74 ± 0.46; (treatment: MLN4924 1 uM, 8 h) 2.47 ± 0.6.

On to KASALNTKIRALQGSLENMSKLLK [CD207], for which the protein stability index runs as follows: (treatment: DMSO) 2.22 ± 0.33; (treatment: MLN4924 1 uM, 8 h) 2.26 ± 0.32. Regarding FLRQLPFRGDDGIFDDNFIEERKQ [SNX3], the protein stability index runs as follows: (treatment: DMSO) 3.55 ± 0.27; (treatment: MLN4924 1 uM, 8 h) 3.82 ± 0.35. With EAAKQMRSRGKVLKTKDGKLPFCA [CPOX], the protein stability index came out at 3.89 ± 0.4 (treatment: DMSO) and 3.68 ± 0.23 (treatment: MLN4924 1 uM, 8 h). The corresponding values for DCILRDTSEDLRLQCDAVNLAFGR [TEKT4] are 3.4 ± 0.13 and 3.48 ± 0.19.

As for TKLHDIDGVPHLILIASRDIAAGE [KMT5A], the protein stability index came to 2.36 ± 0.33 (treatment: DMSO) and 2.33 ± 0.25 (treatment: MLN4924 1 uM, 8 h).

Consider IIKQLKDVFERDWYSPYAKTLQPT [PLD5], for which the protein stability index stood at 1.98 ± 0.59 (treatment: DMSO) and 1.97 ± 0.39 (treatment: MLN4924 1 uM, 8 h). In the same order, the values of KLEEERAKLHDVELHQVAERVEAL [GNB5] are 5 ± 0.34 and 5.15 ± 0.18.

For the sequence ANAEDAQEFSDVERAIETLIKNFH [S100A14], the protein stability index by setting is: (treatment: DMSO) 3.39 ± 0.43; (treatment: MLN4924 1 uM, 8 h) 3.94 ± 0.74. Turning to SCLRRRRHPPKVGDDSDLSEGFES [SMG5], the protein stability index reads like this: (treatment: DMSO) 5.02 ± 0.32; (treatment: MLN4924 1 uM, 8 h) 4.93 ± 0.058. In the same order, the values of GMLKEGVRLDRVRGGRQKYKRRID [ESRRG] are 4.19 ± 0.14 and 4.15 ± 0.33. The corresponding values for RPYMCKECGKAFSQNSSLVQHERI [ZNF8] are 2.82 ± 0.16 and 3.24 ± 0.45. The corresponding values for SWTTVTSMTTPRCYVGATVLRGRL [KLHL12] are 2.23 ± 0.15 and 2.24 ± 0.35. GSAPNSPMALLTIGSSSEKEIDDV [TFE3] came in with a protein stability index (treatment: DMSO) of 5.26 ± 0.28 and a protein stability index (treatment: MLN4924 1 uM, 8 h) of 5.55 ± 0.18. In the case of VQGPGVVGEFPIISPGRVYEYTSC [FBXO3], the protein stability index by setting is: (treatment: DMSO) 2.72 ± 0.52; (treatment: MLN4924 1 uM, 8 h) 3 ± 0.32. On to PVDLNKILEDMRCQYEALVENNRR [KRT36], for which the protein stability index (treatment: DMSO) came to 3.31 ± 0.3 and the protein stability index (treatment: MLN4924 1 uM, 8 h) amounted to 3.23 ± 0.36.

NTSLHVFVLDENDNAPAVLHPRPD [PCDHGC5]: the protein stability index was found to be 3.49 ± 0.27 (treatment: DMSO) and 3.51 ± 0.2 (treatment: MLN4924 1 uM, 8 h). In the same order, the values of LKLLNVLEEYITDEQKEEEEEEGE [FAM9B] are 4.94 ± 0.18 and 4.93 ± 0.29. In the same order, the values of MRPTLIDLLPTFRHTLQKLTCEFN [FBXO39] are 2.35 ± 0.31 and 2.44 ± 0.54.

In the case of RCVLVFEQVRFLMKSYSFLREAVP [SOAT2], the protein stability index was 2.54 ± 0.42 (treatment: DMSO) and 2.8 ± 0.38 (treatment: MLN4924 1 uM, 8 h). The corresponding values for QLPRPPIVGGNKGRSGPLPPVPLG [WAS] are 3.55 ± 0.13 and 3.83 ± 0.64. In the same order, the values of DSSHERTESQLTPCIRNVTSPTRQ [BTBD10] are 5.06 ± 0.15 and 5.1 ± 0.12. In the same order, the values of LPPDVTTQSVMGFDPLPPSDTIYS [TCF25] are 4.19 ± 0.16 and 4.37 ± 0.34.

Regarding ETVLALVNCISPLKYFSDFRPYFT [DENND6A], the protein stability index by setting is: (treatment: DMSO) 2.54 ± 0.48; (treatment: MLN4924 1 uM, 8 h) 3.21 ± 0.83.

Turning to ITDLPRIDVSKREPPPVKQELPPY [EFHC1], the protein stability index runs as follows: (treatment: DMSO) 4.37 ± 0.033; (treatment: MLN4924 1 uM, 8 h) 4.45 ± 0.17. The corresponding values for GMKIDLIDGKGRGVIATKQFSRGD [KMT5A] are 3.49 ± 0.15 and 4 ± 0.63.

The sequence SCCFDPDSQRVASVSLDRCIKIWD [WDR88] returned a protein stability index (treatment: DMSO) of 2.44 ± 0.14 and a protein stability index (treatment: MLN4924 1 uM, 8 h) of 2.57 ± 0.36.

On to RRATSGGKWPQVLFFPEGTCSNKK [LPCAT4], for which the protein stability index is, setting by setting: (treatment: DMSO) 3.72 ± 0.31; (treatment: MLN4924 1 uM, 8 h) 3.78 ± 0.13. In the same order, the values of MLSKGLKRKREEEEEKEPLAVDSW [SERTAD1] are 4.84 ± 0.25 and 4.87 ± 0.092. In the same order, the values of LYPSLGAGYRLGPAQPGADSSFPP [TBX6] are 3.38 ± 0.039 and 3.39 ± 0.24.
